Results reported in patent US20240124556A1, “KERATIN BD-3, PREPARATION METHOD THEREFOR AND PHARMACEUTICAL COMPOSITION AND USE THEREOF” (INSTITUTE OF MATERIA MEDICA, CHINESE ACADEMY OF MEDICAL …, priority 2019, published 2024).

Experiments:
[1] = test system: PLO-induced epilepsy in mice; test: Pilocarpine (PLO) induced convulsive epilepsy in mice; type: in vivo, ICR mice; settings: for mortality rate / Grade IV seizure rate / Cases of Grade IV / Cases of deaths: PLO 225 mg/kg i.p.; for mortality rate / Cases of deaths: model group 0; for Grade IV seizure rate: model group 80%; for Cases of Grade IV / Cases of deaths: of 10 mice; for Cases of Grade IV: 30 min observation, model group 8; for Grade IV seizure incubation period / Grade II seizure incubation period / Grade III seizure incubation period: mean ± SEM; for Grade IV seizure incubation period: maximum recorded 1800 seconds, model group 894 ± 164; for Grade II seizure incubation period: model group 86 ± 5; for Grade III seizure incubation period: model group 142 ± 6
Procedure: • Animals: male ICR mice; • Drugs: Pilocarpine HCl (PLO, pilocarpine, pilocarpine hydrochloride), Diazepam (diazepam tablets), protein BD-3. • Experiment grouping: • Model group: • Diazepam 2 mg/kg group; • Protein BD-3, 50 mg/kg group, 200 mg/kg group.
The drug was administered once in the afternoon the day before modeling, PLO-225 mg/kg (modeling agent) was injected intraperitoneally 1 hour after the test drug was administered intragastrically on the day of modeling. And positive drug can be administered once 20 minutes before modeling. Observe for 30 minutes after PLO injection.
Observation indicators: (1)Seizure situation: the time of seizures from Grade II to Grade IV; (2)the time to death.
(§1) Seizure grade: Refer to Racine grading standard: Grade 0: No response; Grade I: manifested as twitching of facial muscles or the corners of the mouth; Grade II: can nod; Grade III: twitching of one limb; Grade IV: rigidity or body twitching; Grade V: generalized epilepsy (generalized tonic seizures).
Count the number of Grade IV seizures and deaths in each group of mice in the experiment; Grade II, III and IV incubation period. […] Chi-square test was used for statistics of the number of cases. The mean value and standard error of the incubation period were calculated, and TTEST was used to compare the model group with other groups. P<0.05 was considered as a significant difference.

[2] = test system: PTZ-induced epilepsy in mice; test: Pentylenetetrazole (PTZ)-induced epilepsy in mice; type: in vivo, ICR mice; settings: for mortality rate / Grade IV seizure rate / Cases of Grade IV / Cases of deaths: PTZ 65 mg/kg i.p.; for mortality rate: model group 10%; for Grade IV seizure rate: model group 90%; for Cases of Grade IV / Cases of deaths: of 10 mice; for Cases of Grade IV: 15 min observation, model group 9; for Cases of deaths: model group 1; for Grade IV seizure incubation period / Grade III seizure incubation period: mean ± SEM; for Grade IV seizure incubation period: maximum recorded 900 seconds, model group 185 ± 84; for Grade III seizure incubation period: model group 63 ± 6
Procedure: • Animals: male ICR mice; • Medicines: Pentylenetetrazol (PTZ), Retigabine, Protein BD-3. • Experiment grouping: • Model group; • Retigabine 60 mg/kg group; • Protein BD-3, 50 mg/kg group, 200 mg/kg group;
The drug was administered once in the afternoon the day before modeling, On the day of modeling, PTZ-65 mg/kg (modeling agent) was injected intraperitoneal 1 hour after the test drug was administered intragastrically, and the positive drug can be administered once half an hour before modeling. Continue to observe for 15 minutes after injection of PTZ.
Observation index: (1)Seizure situation: the time of seizures from Grade III to Grade VI; (2)Death situation
as §1
Count the cases of seizures and deaths in each group of mice in the experiment; Grade III and IV incubation period. The incubation period of mice that have not attacked to Grade IV is recorded as the maximum of 900 seconds. Chi-square test was used for statistics of the number of cases. Calculate the mean and standard error of the incubation period. Use TTEST to compare the model group with other groups, and P<0.05 is considered as a significant difference.

[3] = test system: cough induced by ammonia water in mice; test: Antitussive test, cough induced by ammonia water in mice; type: in vivo, ICR mice; settings: for Incubation period (cough) / Number of coughs: X ± SEM; for Incubation period (cough): solvent control 26.9 ± 2.3; for Number of coughs: within 2 minutes, solvent control 67.1 ± 5.7
Procedure: • Animals: male ICR mice; • Drugs and reagents: dextromethorphan hydrobromide, ammonia water, 0.2% CMC-Na, protein BD-3; • Apparatus: Compressed nebulizer (403T type), balance (XS105DU type). • Experiment grouping: • Solvent control group; • Dextromethorphan 15 mg/kg group; • Protein BD-3, 20 mg/kg group, 50 mg/kg group.
Dextromethorphan and different doses of protein BD-3 (administration volume 10 ml/kg) were given orally in groups, and the solvent control group was given the same volume of distilled water. One hour later, mice were put into a sealed box and atomized 10% ammonia water for 10 seconds, and then observed and recorded the incubation period of cough in mice and the number of coughs in 2 minutes.
Record the time point of oral administration, the time point of atomization experiment, the incubation period of mice cough and the number of coughs within 2 minutes, respectively. The incubation period of cough refers to the number of seconds from the start of the atomization of ammonia to the occurrence of cough. The performance of coughing in mice is based on contraction of their abdominal muscles (breast contraction) and opening their mouths at the same time. Calculate the mean and standard error of each group of data, and use TTEST to compare the model group with other groups, and P<0.05 is considered as a significant difference.

[4] = test system: acetic acid writhing in ICR mice; test: Acetic acid writhing in ICR mice; type: in vivo; settings: for Writhing incubation period: 0.6% acetic acid i.p., model group 204.2 ± 19.6; for Frequency of writhing: within 15 minutes, model group 33.3 ± 2.5
Procedure: • Animals: male ICR mice; • Drugs and reagents: aspirin, physiological saline, glacial acetic acid, protein BD-3. • Experiment grouping: • Model group; • Aspirin 300 mg/kg group; • Protein BD-3, 50 mg/kg group, 200 mg/kg group.
One day after the experimental animals adapt to the environment, Aspirin 300 mg/kg, protein BD-3 50 mg/kg, 200 mg/kg were given orally one hour in advance, and the administration volume was 10 ml/kg; Then, 0.6% acetic acid solution was injected intraperitoneally, and the incubation period (seconds) and frequency of writhing in the animal was observed within 15 minutes.
Calculate the mean and standard error of the data in each group. Compared with the model group by TTEST, P<0.05 was considered as statistically different.

[5] = summary statement, no dose given

B1: BD-3: recombinant keratin, amino acid sequence SEQ ID NO:1, expressed in E. coli, band around 43 kD; tested material prepared in Example 4 (protein, listed as Bos taurus)
chain: MSYSCCLPNLSFRSSCSSRPCVPSSCCGTTLPGACNIPANVGSCNWFCEGSFNGSEKETMQFLNDRLASYLEKVRQLERDNAELESRILERSQQKILANKAENARLVVQIDNAKLAADDFRTKYQTELGLRQLVESDINGLRRILDELTLCKSDLEAQVESLKEELICLKQNHEQEVNTLRSQLGDRLNVEVDAAPTVDLNRVLNETRAQYEALVETNRRDVEEWYIRQTEELNKQVVSSSEQLQSYQAEIIELRRTVNALEVELQAQHNLRDSLENTLTETEARYSCQLAQVQGLIGNVESQLAEIRSDLERQNQEYQVLLDVRARLECEINTYRGLLDSEDCKLPCNPCATTNASSVGSCVTNPCTPCGPRSRFGPCNTFGC
With B1 as the molecule, how does the “Epilepsy Grade IV incubation period vs model group (in words)” value ([1]; BD-3 50 mg/kg) read?
The value was “statistically different from the model group”.

And the mortality rate ([1]; BD-3 50 mg/kg intragastric)?
The mortality rate was 0.

What about the “Grade IV seizure rate” value ([1]; BD-3 50 mg/kg intragastric) of the same molecule?
The value was 30%.

And the “Cases of Grade IV” value ([1]; BD-3 50 mg/kg intragastric)?
Its value is 3.

And the Cases of deaths ([1]; BD-3 50 mg/kg intragastric)?
Its Cases of deaths is 0.

What about the “Grade IV seizure incubation period” value ([1]; BD-3 50 mg/kg) of the same molecule?
Its value is 1573 ± 138 s.

What about the “Grade II seizure incubation period” value ([1]; BD-3 50 mg/kg) of the same molecule?
The value was 91 ± 6 s.

What about the “Grade III seizure incubation period” value ([1]; BD-3 50 mg/kg) of the same molecule?
The value was 155 ± 12 s.

And the “Epilepsy Grade III incubation period vs model group (in words)” value ([1]; BD-3 200 mg/kg)?
The value was “statistically different from the model group”.

And the mortality rate ([1]; BD-3 200 mg/kg intragastric)?
Its mortality rate is 0.

What about the “Grade IV seizure rate” value ([1]; BD-3 200 mg/kg intragastric) of the same molecule?
The value was 60%.

And the “Cases of Grade IV” value ([1]; BD-3 200 mg/kg intragastric)?
The value was 6.

And the Cases of deaths ([1]; BD-3 200 mg/kg intragastric)?
The Cases of deaths was 0.

And the “Grade IV seizure incubation period” value ([1]; BD-3 200 mg/kg)?
The value was 1181 ± 203 s.

And the “Grade II seizure incubation period” value ([1]; BD-3 200 mg/kg)?
The value was 99 ± 5 s.

And the “Grade III seizure incubation period” value ([1]; BD-3 200 mg/kg)?
The value was 183 ± 12 s.

What about the “Summary: effect on epilepsy incubation period, PLO model (in words)” value [1, 5] of the same molecule?
The value was “can significantly prolong the incubation period of class III and class IV epilepsy in mice”.

What about the mortality rate ([2]; BD-3 50 mg/kg intragastric) of the same molecule?
Its mortality rate is 10%.

What about the “Grade IV seizure rate” value ([2]; BD-3 50 mg/kg intragastric) of the same molecule?
The value was 100%.

And the “Cases of Grade IV” value ([2]; BD-3 50 mg/kg intragastric)?
Its value is 10.

And the Cases of deaths ([2]; BD-3 50 mg/kg intragastric)?
Its Cases of deaths is 1.

And the “Grade IV seizure incubation period” value ([2]; BD-3 50 mg/kg)?
The value was 162 ± 58 s.

What about the “Grade III seizure incubation period” value ([2]; BD-3 50 mg/kg) of the same molecule?
The value was 75 ± 6 s.

What about the “Epilepsy Grade III incubation period vs model group (in words)” value ([2]; BD-3 200 mg/kg) of the same molecule?
Its value is “has a tendency to extend the incubation period, but there is no statistical difference compared with the model group”.

What about the mortality rate ([2]; BD-3 200 mg/kg intragastric) of the same molecule?
Its mortality rate is 0%.

What about the “Grade IV seizure rate” value ([2]; BD-3 200 mg/kg intragastric) of the same molecule?
The value was 70%.

And the “Cases of Grade IV” value ([2]; BD-3 200 mg/kg intragastric)?
The value was 7.

What about the Cases of deaths ([2]; BD-3 200 mg/kg intragastric) of the same molecule?
Its Cases of deaths is 0.

And the “Grade IV seizure incubation period” value ([2]; BD-3 200 mg/kg)?
The value was 327 ± 125 s.

What about the “Grade III seizure incubation period” value ([2]; BD-3 200 mg/kg) of the same molecule?
Its value is 62 ± 5 s.

And the “Incubation period (cough)” value ([3]; BD-3 20 mg/kg oral)?
Its value is 31.6 ± 3.3 s.

What about the Number of coughs ([3]; BD-3 20 mg/kg oral) of the same molecule?
The Number of coughs was 46.7 ± 4.1.

What about the “Number of coughs vs solvent control (in words)” value ([3]; BD-3 20 mg/kg, P<0.05) of the same molecule?
The value was “significant improvement in the number of coughs”.

What about the “Incubation period (cough)” value ([3]; BD-3 50 mg/kg oral) of the same molecule?
The value was 34.2 ± 2.1 s.

What about the Number of coughs ([3]; BD-3 50 mg/kg oral) of the same molecule?
The Number of coughs was 53.6 ± 3.7.

What about the “Cough incubation period vs solvent control (in words)” value ([3]; BD-3 50 mg/kg, P<0.05) of the same molecule?
Its value is “significant improvement in the incubation period”.

And the “Summary: antitussive effect (in words)” value [3, 5]?
The value was “can significantly extend the incubation period, significantly reduce the number of coughs”.

What about the Writhing incubation period ([4]; BD-3 50 mg/kg oral) of the same molecule?
The Writhing incubation period was 221.5 ± 28.4 s.

And the Frequency of writhing ([4]; BD-3 50 mg/kg oral)?
The Frequency of writhing was 24.7 ± 3.0 times.

And the “Times of writhing vs model group (in words)” value ([4]; BD-3 50 mg/kg, P<0.05)?
The value was “can significantly reduce the times of writhing in mice”.

And the Writhing incubation period ([4]; BD-3 200 mg/kg oral)?
Its Writhing incubation period is 189.8 ± 10.4 s.

What about the Frequency of writhing ([4]; BD-3 200 mg/kg oral) of the same molecule?
The Frequency of writhing was 29.5 ± 4.7 times.

And the “Summary: analgesic effect, writhing (in words)” value [4, 5]?
Its value is “can significantly reduce the number of writhing times in mice”.
